Data on 1 molecule can be found in patent US20250147051A1, “METHOD FOR DETECTING A TAU PROTEIN IN A SALIVA SAMPLE” (GTINVENT LIMITED, priority 2022, published 2025).

The target of one assay is hT40 (Homo sapiens, UniProt P10636). The assay is described as follows: Biacore X100 SPR binding kinetics of anti-tau scAbs (scAb captured via HuCk), analyte hT40. The settings on record: lead scAbs, Table 23. How it is done:
Surface plasmon resonance (SPR) is widely regarded as the gold standard for real time measurement of protein-protein interactions such as antibody binding. All SPR experiments were carried out using a Biacore X100 machine and HBS EP+ running buffer (GE Healthcare). A ‘capture’ method was followed for affinity measurements, where an anti-human constant kappa chain (HuCk) antibody was conjugated to the surface of a CM5 sensor chip using an amine coupling kit and scAb molecules were immobilised via their HuCk domain. Amine coupling is a very common approach for immobilising the ligand to the chip surface. […] The capture antibody was diluted 1/100 in 10 mM Sodium acetate buffer pH 5.0 and passed over the activated chip surface for a period of at least 420 s. Final ligand immobilisation levels over 12,000 RU were deemed to be satisfactory.
Following immobilisation, the level of each scAb to be captured was identified using the standard SPR equation with a theoretical RMax of 100 RU. Analyte MW refers to the molecular weight of hT40 or dGA/dGAE molecules, while ligand MW refers to the molecular weight of the scAbs tested. […]
(§1) The single cycle kinetics protocol was similar and utilised the same level of scAb capture. […] Binding responses were analysed in Biacore X100 evaluation software and data fitted to a 1:1 binding model to obtain kinetic and affinity characterisation.
(In general: Surface plasmon resonance follows binding to a sensor surface in real time, without labels.)

For another assay, the target named is dGAE (Homo sapiens, UniProt P10636). Nature of the assay: Biacore X100 SPR binding kinetics of anti-tau scAbs (scAb captured via HuCk), analyte dGAE. The following applies: lead scAbs. On the procedure: Surface plasmon resonance (SPR) is widely regarded as the gold standard for real time measurement of protein-protein interactions such as antibody binding. All SPR experiments were carried out using a Biacore X100 machine and HBS EP+ running buffer (GE Healthcare). A ‘capture’ method was followed for affinity measurements, where an anti-human constant kappa chain (HuCk) antibody was conjugated to the surface of a CM5 sensor chip using an amine coupling kit and scAb molecules were immobilised via their HuCk domain. Amine coupling is a very common approach for immobilising the ligand to the chip surface. The chip surface has a dextran matrix derivatised with carboxyl groups, which after activation with N-hydroxysuccinimide (NHS) and 1-ethyl-3-(3-dimethylaminopropyl) carbodiimide (EDC), form reactive succinimide esters which allows the covalent capturing of the ligand via any available primary amine groups (e.g. Lysine) on the ligand (in this case anti-HuCk antibody). The capture antibody was diluted 1/100 in 10 mM Sodium acetate buffer pH 5.0 and passed over the activated chip surface for a period of at least 420 s. Final ligand immobilisation levels over 12,000 RU were deemed to be satisfactory.
Following immobilisation, the level of each scAb to be captured was identified using the standard SPR equation with a theoretical RMax of 100 RU. Analyte MW refers to the molecular weight of hT40 or dGA/dGAE molecules, while ligand MW refers to the molecular weight of the scAbs tested. RLis the desired capture level and S refers to the stoichiometric ratio:
The scAb to be tested was added only to flow cell 2 so that flow cell 1 could act as a control to subtract any interaction with the analyte and the chip surface. Both single and multi-cycle runs were utilised using wizards developed in the Biacore X100 control software which are both accepted methods of kinetic analysis (Karlsson, R., et al. Analyzing a kinetic titration series using affinity biosensors (2006) Analytical Biochemistry 349:136-47). The multi-cycle protocol was as follows-Three start-up cycles composed of an initial capture, to the desired level, of the scAb to be tested was performed followed by a 30 s injection of glycine buffer pH 2.0 after each cycle to regenerate the chip surface. The regeneration step removed any captured scAb whilst leaving the capture antibody intact and able to repeat the capture for the next cycle. […]
as §1

Chain of dGAE (P10636 614-708): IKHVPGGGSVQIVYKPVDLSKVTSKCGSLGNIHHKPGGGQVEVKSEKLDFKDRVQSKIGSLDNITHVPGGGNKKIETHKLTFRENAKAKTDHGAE
Chain of hT40 (P10636 1-441 isoform P10636-8): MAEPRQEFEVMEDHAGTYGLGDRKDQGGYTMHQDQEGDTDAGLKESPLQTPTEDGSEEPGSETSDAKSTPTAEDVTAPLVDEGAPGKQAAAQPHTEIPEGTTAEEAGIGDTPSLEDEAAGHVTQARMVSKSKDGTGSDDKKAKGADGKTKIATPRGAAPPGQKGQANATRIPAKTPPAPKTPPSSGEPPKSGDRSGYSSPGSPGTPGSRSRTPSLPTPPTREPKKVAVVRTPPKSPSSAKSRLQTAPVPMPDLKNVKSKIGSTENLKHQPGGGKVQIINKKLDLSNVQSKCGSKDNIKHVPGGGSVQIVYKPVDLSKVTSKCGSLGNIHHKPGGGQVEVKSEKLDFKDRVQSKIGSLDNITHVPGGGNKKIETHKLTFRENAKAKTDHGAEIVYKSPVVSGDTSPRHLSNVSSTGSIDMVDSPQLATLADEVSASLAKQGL

B1: E2E8: anti-tau clone, SEQ ID NO: 248 (protein)
scFv: QVQLQESGPSLVKPSQTLSLTCTVSGFSLTDRGVAWVRQAPGKALEWVGTMRSGGTIDYNPALKSRLSITRDTSKSQVFLSLSSVTTEDMAMYYCARGYLSGDRYAWGRGLLVTVSSEGKSSGASGESKVDDQAVLTQPSSVSKSLGQSVSIACSGSRSDIGYGNYVSWFQQIPGSAPKLLIYDTNTRASGVPDRFSGARSGNTATLTINSLQAEDEADYYCANIDSSRSHLFGSGTRLTVLG
modifications: E2E8 amino acid sequence
In the case of B1, in the assay with hT40, the “T441 binding (result in words)” value is “No T441 binding”. In the assay with dGAE (Table 24), the ka is 477000 M⁻¹ s⁻¹. Also, the “dissociation rate constant (koff)” value with dGAE (Table 24, dissociation rate) amounted to 0.0001915 s⁻¹.
